From the nanobody polyreactivity screen of Harvey et al. (2022)

Assay: yeast display, Sf9 membrane polyspecificity reagent, FACS + sequencing; frameworks hold sequencing errors
Outline: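 Galactose-induced (36–48 hours) yeast carrying a synthetic nanobody display library were exposed to 10% biotinylated, detergent-solubilized Sf9 membrane reagent at 4 °C for 1 hour. FACS followed streptavidin microbead enrichment, using low and high (top ~1%) gates for expression (anti-HA) and reagent binding (streptavidin). Colony PCR, MiSeq 2 × 250 sequencing and CDR-length filtering followed. Labels for polyreactivity reflect the gate of origin.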

Sequence	polyreactivity (PSR sort gate)
QVQLVESGGGLVQAGGSLRLSCASSGSIFKAYAMGLSRQAPGKERELVAAIRGSGGRTYYADSVKGRFTISRDYAKNTVYLQMNSLKPEDTAVYYCNTVRSTPNGLDYDYWGQGTQVTVSS	low polyreactivity
QVQLVESGGGLVQAGGSLRLSCAASGSIFEGNGMGRYRQAPGKERELVAAITFRSGSTYYADSVKGRFTISRDNAKNTVYLQMNSLKPEDTAVYYCAADEYYQVSAYDYWGQGTQVNVSS	low polyreactivity
QVQLVESGGGLVQAGASLRLSCAASGRTLGYYAMGWSRQEPGKERELVAAISRSGGSTYYADSVKGRFTISRDNAKNTVYLQINSLKPEDTAVYYCAATYGPSRYRYDYWGQGTQVTVSS	high polyreactivity
QVQLVESRGGLVQAGGSLRLSFAASGSNFGAYAMVWYRQAPGKERELVAGITGSGGTTYYADSVKGRFTISRDNGKNTVYLQMNSLTPEDTAVYDCAKRVWVRYYYWGQGTQVTVSS	high polyreactivity
QVQLEESGGGLVQAGGSLRLSCPASGIIFGSYAMGWSRQAPGKERELVAAITSDGITNYADSVKGRFTISRDNGKNTVYLPMNSLKPEDTAVYYCAAPGPLGGSDYWGQGTQVTVSS	low polyreactivity
QVQLVESGGGLVQAGGSLRLSCAASGLTFVDYAMGWYRQAPGKERELVAAISWSGGSTYYADSVKGRFTISRDIAKNTVYLQMNSLKPEDTAVYYCAAETQGWYPWGFYWGQCTQVTVSS	low polyreactivity
QVQLEESGGGLVQAGGSLRLSCAASGSIFRGYAMGWYRQAPGKERELVAAITWGGGSTYADSVKGRFTISRDNAKNTVYLQMNSLKPEDTAVYYCAARYVSRYYVYRGFEYWGQGTQVTVSS	high polyreactivity
QVQLVESGGGLVQAGGSLRLSCAASGFIFAHNAMGWYRQAPGKVRELVAAISWGSGSTYYADSVKGRFTISRDNAKITVYLQMNSLKPEDTAVSYCAARAVRYYAWVRGGWTSFDYWGQGTQVTVSS	high polyreactivity
QVQLVESGGGLFQAGGSLRLSCAASGFIFFPYTMGWYRQAPGKERELVAAITNGGSTSYADSVKGRFTISRDNAKNTVYLQMNSLKPEDTAVYYCAADLGRNLLHTYYYWGQGTQVTVSS	low polyreactivity
QVQLVESGGGLVQAGGSLRLSCAASGRIFHKYDMGWYRQAPGKERELVAAITTSGGSTYYADSVKGRFTISRDNAKNTVYLQMNSLKPEDTAVYYCADSWSRRERGFDYWGQGTQVTVSS	high polyreactivity
QVQLVESGGGLVQAGGSLRLSCAASGSIFTQYAMGWSRQAPGKERELVAVITTGSSTYYADSVKRRFTISRDNAKNTVYLQMNSLKPEDTSVYYCAVRTATRSPRRYGYWGQGTQVTVSS	high polyreactivity
QVQLVESGGGLVQAGGSLRLSCAASGFIFPVYTMGWSRQAPGKERELVGAITQIGGSTHYADSVKGRFSISRDNAKNTVYIQMNSLTPDDTAVYYCNAVPSYGTEYDYWGQGTHVTVSS	low polyreactivity
QVQLVESGGGLVQAGGSLRLSCAASGSIFVFYAMGWYRQAPGKEREFVAAMSISGGRTYYADSVKGRFTISRDIAKNTVYLQMNSLKPEDTAVYYCAASRVYTSITLYYWGQGTQVTVSS	high polyreactivity
QVQLQERGGGLVQAGGSLRLSCAASGYISHADEKGWYRQAPGKEHELVASISNGGCTNYADSEKGRFTISRDNAKNTLYLQMNSLKSEDTAVYYCAAWTGQVDIHYYWGQGTQVTVSS	low polyreactivity
QGQLVESGGGLVQAGGSLRLSCAASGSTFYLNAMGWYRQAPGKERELVATITRRGGRTYYADSVKGRFTISRDNAKNTVYLKMNSLKPEDTAVYYCNKGGISPGDALYGYWGQGTQVTVSS	low polyreactivity
QDLLVESGAGLVQAGGSVRLSCAASGRIVYTYAMAWYRQAPGIERELVAVISSGGSTYYADSVKGRFTNSRDNAKNTVYLQMNSLTPEDTAVYYCAAYGTKWGRGFYITGYGYWGQGTQVTVSS	low polyreactivity
QVQLVESGGGLVQAGGSLRLSCAASGFISPSNAMGWYRQAPGKERELVAAIRSSDGSTYYADSVKGRFTISRDNAKNTVYLQMNSLKPEDTAVYYCAAGGSYYRDDYWGQGTQVTVSS	low polyreactivity
QVQLVESGGGLVQAGGSLRLSCAASGRTFFYNGMVWYIQAPGKQRELVAAISGSGSRTYYADSVKGRFTISRDNAKNTVYLQMNSLKPEDTAVYYCAATRVISHYRFDYWGQGTEVTVSS	high polyreactivity
QVQLVESGGGLVQAGGSLRLSCASSGSISAVNTMGWYRQAPGKERELVATISYSTASTYYADSVKGRFTMSRDNAKKTVYLQMNSLKPEDTAVYYCNKDGRWYAYNSEYDHWGQGTQVTVSS	low polyreactivity
QVQLVESGGGLVQAGGSLRLSCAASGSTFTLNAMGWYRQAPGKERELVADISWSSGRTYYADSVKGRFTISRDNAKNTVYLQMNSLKPEDTAVYYCATYDFWNVKFYAYYPEFDYWGQGTQVTVSS	low polyreactivity
QVQLVESGGGLVQAGGSLRLSCAASGFIFAIYAMGWYRQAPGKERELVAAITSSSSTYADSVKGRFTISRDNAKNTVYLQMNSLKPEDTAVYYCAADTYSYRYSNDYWGQGTQVTVSS	low polyreactivity
QVQLQESVGGLVQAGGSLRLSCAASGNIFDADIMGRYRQAPGKERELVASITDGGSTNYADSVKGRFTISLDNAKNTVYLHMNSLKPEDTAVYYCAARPHRYTSRHGYWGQGTQVTVSS	high polyreactivity

Sequence	polyreactivity (PSR sort gate)
QVQLVESGGGLVQAGGSLRLSCAASGSTFAINARGWYRQAPGKERELVAAISSSGSTNYADSVKGRFTISRDNAKITVYLQMNSLKPEDTAVYYCAATGYRVYGFEFGYWGQGTQVTVSS	low polyreactivity
QVQLVESGGGLVQAGGSLRIRSAASGGIIWWNAMGWYIQAPGKERELVAAISRSGGTTYYADSVKGRFTISRDNEKNSVYLQMNSLKPEDTAVYFCAAQYRYPGFNYWGQGSQVTVSS	high polyreactivity
QVQLVESGGGLVQAGGSLPLSCAASGRIFNGYAMGGYIQAPGKERELVAAICWRGGRTYYADSVKGRFTISRDNAMNTVYLQRNSLKAEDTAVYYCNKDLPPQGQLRNMYYWGQGTIVTVSS	high polyreactivity
QVQLVESGGGLVQAGGSLRLSCAASGRIVGINVMGWYRQAPGKERELVAAISYRTGSTYYADSVKGRFTISRDNAKNTVYLQMNSLKPEDTAVYYCDAQRRIRTAWYDYWGQGTQVTVSS	high polyreactivity
QVQLVESGGGLVQAGGSLRLSCAASGRTFRYNAMGWYRQAPGKERELVAAISRGANTNYADSVKGRFTISRDNAKNTVYLQMNSLKPEDTAVYYCAAVPGYRFYYWGQGTQVTVSS	high polyreactivity
QVQLVESGGGLVQAGGSLRLSCAASGSTFQTYAMGWYRQAPGKERELVASIDYSGGSTYYADSVKGRFTISRDNAKNTVYLQMNSLKPEDTAVYYCAADLSSDSSYSGYDYWGQGTQVTVSS	low polyreactivity
QGQLVESGGGLVQAGGSLRLSCAASARTYGNYAMGRYREAPGKERELVADITRRGGSTSYADSVKGRFTISRDNAKNTVYLQMNSLKPEDTAVYYCNKRTTPYYSQGITRIEYDYWGQGTQVTVSS	low polyreactivity
QVQLVESGGGLVQAGGSLRLSCAASGFIFWLYAMGWYRKAPVKESELVAAISWSDGSTYYADSVKGRFTISRDNAKNSVYLQMNCLKREDTAVYYCNTVRVHGFPIDRIYDYWGQGTQVTVSS	high polyreactivity
QVQLVESGGGLDHAGGSLRLSCAPSGRIFSVNAMGWYRQAPGKERELVAAITSGDSTNYADSVKGRFTISRDNAKNTVYLQSNSMKQEDTAVYYCNARGSQELWRRKWYHTEYDSWGQGTQVSVSS	low polyreactivity
QVQLVESGGGLVQAGGSLRLSCAASGSTFHDYAMGLYRQAPGKERELVAAISNSGGSTYYADSVKGRFTISRDNAKNTVYLQMNSLKPEDTAVYYCAARKYVAGHKYIMNYWGQGTQVTVSS	low polyreactivity
QVQLVESGGGLVQAGGSLRLSCAASGSTFTYNAMGWYRQAPGKERELVASISSGTTTYYADSVKGRFTISRDNAKNTVYFQMHSLKPEDTAVYYCAVDSWSRVQGWLAHNYDYWGQGTQVTVSS	low polyreactivity
QVQLVESGGGLVHAGGSLRLSCAASGRTFSAYAMGWYRQAPGKERELVAAISRSGGRTYYADSVKGRFTISRDNAKNTVYLQMNSLKPEDTAVYYCNALNLPDNQGTYDYWGQGTQVTVSS	high polyreactivity
QVQLVESGGGLVQAGGSLRLSCAASGSTFFIYAMGWYRQAPGKERELVAAISGSGGTTYYADSVKGRFTISRDNAKNTVYLQMNSLKPEDTAVYYCAARTFSAFWRGGYDYWGQGTQVTVSS	low polyreactivity
QVQLVESGGGLVQAGGSLRLSCASSALIFYWYPIGWYRQAPGKESELVAAISYGGTTTSYADSVKGRFTISRDNATNTVYLQMNSLKPEDTAVYYCAADWLYGHFQITGYPVGVDYWGQGTQVTVSS	low polyreactivity
QFQLVESGGALVQAGGSLRLSCAASGLIFGRYAMGWYRQAPGNERELVAAISWRGGSTFYADSVKGRFTISRDNAKNTVYLQMNSLKPEDTAVYYCNARYYPARVRTYDHWGQGTQVTVSS	high polyreactivity
QVQLVESGGGLVQAGGSLRLSCAASGSTLYSYAMGWYRQAPGKERELVAAISIGGRTYYADSVKGRFTISRDNAKNTVYLQMNSLKPEDTAVYYCNKYYGPRTYLSAQGRSYGYWGQGTQVTVSS	high polyreactivity
QVQLEESGGGLVQEGGSLRLSCAASGRIFKWNAMGLYRQAPGKERELVAAISLSGGSTYYADSVKGRFTISRDNAKNTVYLQMNSLKPEDTAVYYCNAYAYHRYGYWGQGTQVTVSS	high polyreactivity
KVQRVDSGGGLVQAGGSLRLSCAASGSILGPYAMGWYRQAPGKERELVAGISGSGTRTYYADSVKGRFTISRDNAKNTVYLQMNSLKPEDTAVYYCAARYYSSWFRYPSYDYWGQGTQVTVSS	high polyreactivity
QVQLVESGGGLVQAGGSLRLSCAASGLIFVFYAMGWYRQAPGKERELVAAISRSGTSTYADSVKGRFTISRDNAKNTVYLQMNSLKPEDTAVYYCNAYRYYSPYGYWGQGTQVTVSS	low polyreactivity
QVQLVESGGGLVQAGCSLRLSCAASGSIFGWYAMGWYRPAPGKERELVAAITLIGGSTYYADSVKGRFTISRDNAKNTVYLQMNSLKPEDTAVYYCNAVWYWGDMDYWGQGTQVTVSS	low polyreactivity
QVQLVESGGGFVQAGGSLRLSCAASGRIFYNYAMGWYRQAPGKERELVAAMSGSGGSTYYADSVKGRFTISRDNAKNTVYLQMNSLKPEDTAVYYCSTSGPQYYSRNVDYWGQGTQVTVSS	low polyreactivity
